Series [1] concerns S129-phospho-alpha-synuclein (human). Description: EMSA. The settings on record: 57 uM stated for GST in the comparison; 10% gel; N=3; EMSA: 20 ng DNA in 20 uL, 94 mM Tris-Cl pH 8.0, 25 mM NaCl, 1 mM EDTA, 5% ficoll; on ice 20 min then RT 30 min; 10% or 6% polyacrylamide TBE gel, 100 V ….
Series [2] deals with alpha-synuclein (human). In words: EMSA. Particulars: 57 uM protein; 10% gel; N=3; EMSA: 20 ng DNA in 20 uL, 94 mM Tris-Cl pH 8.0, 25 mM NaCl, 1 mM EDTA, 5% ficoll; on ice 20 min then RT 30 min; 10% or 6% polyacrylamide TBE gel, 100 V ….

This is an account of results in publication PMC6662836.

For the substance 300 bp dsDNA, the binding signal (fraction shifted) in series [1] was 0.58; in series [2], 0.86.
